Data published in the Human Domainome abundance scans (Beltran et al. 2025).

B1: Max-interacting protein 1, residues 70 to 120; numbered along this chain, P50539 (parent)
chain: STHNELEKNRRAHLRLCLERLKVLIPLGPDCTRHTTLGLLNKAKAHIKKLE

Variants of: B1
Test: abundance fitness (aPCA) (normalised: wild type 0, dead -1); higher = more abundant; growth selection in yeast, the domain comes from the species named
Conditions: Homo sapiens

Abundance fitness of substitutions, site by site:
R10: D -0.545, E -0.71, F -0.164, G -0.322, H -0.068, I -0.289, L -0.076, N -0.18, P 0.298, Q -0.219, S -0.217, T 0.309, V -0.101, W 0.163
R11: A -0.547, C -0.256, D -0.19, F -0.396, H -0.13, I -0.252, K 0.223, L -0.062, M -0.261, P -0.105, Q -0.281, S -0.375, T -0.352, V -0.509, W -0.257
A12: C -0.426, D -0.438, E -0.432, F -0.826, G -0.063, H -0.666, I -0.847, K -0.048, L -0.651, N -0.185, P -0.102, Q -0.305, R -0.327, S 0.018, T 0.124, V -0.438, W -0.193, Y -0.932
H13: A -0.515, C -0.509, D -0.604, F -0.076, G 0.124, I -0.447, K 0.26, L 0.02, M -0.156, N 0.093, P 0.064, Q -0.086, S -0.085, T -0.353, V -0.339, Y -0.04
L14: A -0.197, C -0.315, D -0.274, E -0.645, F 0.096, G -0.265, H -0.143, K -0.625, M -0.208, N -0.735, P -0.064, R -0.447, S -0.299, T -0.368, V -0.356, W 0.187, Y 0.111
R15: A -0.211, C -0.801, D -0.749, E -0.476, F -0.269, G -0.383, H -0.462, K 0.143, L -0.432, M -0.462, N -0.777, P -0.21, Q -0.369, S -0.231, T -0.407, V -0.678, W -0.27, Y -0.941
L16: A -0.05, C -0.247, D -0.037, E 0.102, F -0.207, G 0.274, H -0.55, I -0.133, K 0.022, M -0.001, N -0.069, P -0.126, Q 0.16, R 0.165, S 0.218, V -0.058, W 0.07, Y -0.241
C17: A -0.193, E -0.681, F 0.048, G -0.402, H -0.683, I -0.617, L 0.101, M 0.123, N -0.536, P -0.232, Q -0.635, R -0.729, S -0.641, T -0.666, V 0.061, Y -0.284
L18: A -0.275, C -0.61, D -0.625, E -1.07, F -0.001, H -1.12, I -0.295, K -0.515, M -0.405, P -0.542, Q -1.08, R -0.652, S -0.455, T -0.824, Y -0.305
E19: A -0.23, C -0.618, D -0.252, F -0.623, H -0.236, I -0.43, K -0.467, L -0.791, M -0.678, N 0.202, P -0.358, Q -0.185, R -0.513, S -0.083, T -0.532, V -0.999, W -0.782, Y -0.79
R20: A -0.677, D -1.17, E -0.929, F -0.971, G -0.817, H -0.726, I -1.11, M -1, N -0.335, P -0.753, Q -0.405, S -0.576, T -0.377, V -0.797, W -0.912, Y -0.884
L21: A -0.547, C -0.503, D -1.23, E -0.931, F -0.398, G -0.957, H -0.335, I -0.144, K -0.739, M -0.358, N -1.17, P -0.978, Q -0.495, R -1.05, S -0.915, T -0.832, V -0.669, W -0.594
K22: A -0.903, C -0.871, D -0.83, E -0.885, F -0.759, G -0.611, H -0.651, I -1.21, L -0.639, M -0.753, N -0.572, P -0.757, Q -1.02, R -0.121, S -0.536, T -0.835, V -0.926, W -1.08, Y -0.884
V23: A 0.488, C 0.287, D -0.127, E 0.096, F -0.191, G 0.355, H 0.455, I -0.218, K 0.547, L 0.128, M 0.064, N 0.313, Q 0.123, R 0.316, S 0.317, T 0.274, Y -0.062
L24: A -0.329, C -0.013, D -1, E -0.751, F -0.277, G -0.461, H -0.139, I 0.137, K -0.294, M -0.292, N -0.715, P -0.938, Q -0.569, R 0.013, S -0.391, T -0.455, V -0.193, W 0.244
I25: A -0.584, C 0.045, D -0.852, E -0.384, F -0.141, G -0.26, H -0.744, K -0.995, L -0.172, M -0.228, N 0.169, P -0.334, Q -0.561, R -0.521, S -0.39, T -0.562, V -0.062, W 0.319, Y -0.309
P26: C -0.157, D -0.327, E -0.138, F -0.557, G 0.278, H 0.017, I -1.18, K 0.441, L -0.326, M 0.074, N 0.063, Q 0.144, S 0.193, T 0.369, V -0.628, W -0.525, Y -0.626
L27: A -0.006, C -0.573, D -0.512, E -0.423, G 0.18, H -0.146, I -0.004, M -0.031, P 0.359, Q -0.149, R 0.308, S 0.166, T 0.074, V -0.009, Y -0.39
G28: A -0.284, C -0.155, E -0.38, F 0.069, H -0.147, I 0.402, K 0.362, L -0.142, M 0.074, P -0.015, Q -0.092, R 0.122, S 0.003, V 0.273, W 0.199, Y 0.133
P29: A 0.466, C 0.181, D -0.387, E -0.296, F 0.413, G -0.119, H 0.262, I 0.506, K 0.44, L 0.533, M 0.282, N -0.106, Q 0.028, R 0.216
